Reference: article PMC11321312
Residue numbers refer to the chain shown, from its start. Names and notes keep the numbering of the source. One block for each binder: values may come before it.

Legend:
[1] = molecular target: JGFN4 wild-type VHH (camelid (library from B cells of llamas and alpacas)); test: crystal structure; crystals grown from the isolated monomeric species (~12 mg/ml) with 5-fold molar excess of fentanyl; sitting drop, ambient temperature
[2] = molecular target: JGFN4 wild-type VHH (camelid (library from B cells of llamas and alpacas)); test: crystal structure; crystals grown from the isolated (preformed) dimeric species (~12 mg/ml) with 5-fold molar excess of fentanyl; sitting drop, ambient temperature
[3] = molecular target: JGFN4 N76D VHH (camelid (library from B cells of llamas and alpacas)); test: as above

- stoichiometry N [1]: 2
- stoichiometry N [2]: 2
B1: JGFN4 wild-type VHH (VHH)
VHH: QVQLVESGGGLAQAGGSLQLSCAASGSTSRVNAMGWYRQTPGKERELVAAIDRSGATVYSESVRGRFTISKNDAKNIVWLQMNNLTTEDTAVYYCRSGVLGSWGLGTQVTVSS

- stoichiometry N [3]: 2
B2: JGFN4 N76D VHH (VHH)
VHH: B1 VHH with N76D
